Reference: patent publication US20230348629A1

Molecular target: human TIGIT on HEK293A/human TIGIT cells (human) (UniProt Q495A1)
Assay: cell-based or functional assay

Chain of human TIGIT on HEK293A/human TIGIT cells (human) (Q495A1 22-244 limits assumed): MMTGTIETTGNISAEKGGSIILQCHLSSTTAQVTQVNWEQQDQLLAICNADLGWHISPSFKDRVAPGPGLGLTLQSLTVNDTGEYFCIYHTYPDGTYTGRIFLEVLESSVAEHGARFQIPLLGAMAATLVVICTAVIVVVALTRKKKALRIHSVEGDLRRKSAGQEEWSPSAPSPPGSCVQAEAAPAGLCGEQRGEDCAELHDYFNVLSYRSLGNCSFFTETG

- EC50, NK92 (NK92MI-CD16a) cell-mediated ADCC, LDH release: 0.511 nM
Substance: Tiragolumab (antibody)
- EC50, PBMC-mediated ADCC, death rate of GFP+ cells by FACS: 0.311 nM
